The supplement of paper PMC9112550, “Optimization of the antimicrobial peptide Bac7 by deep mutational scanning” (BMC Biology, 2022)

System: Escherichia coli TOP10
Experiment: shrunken log2 fold change of peptide-encoding DNA abundance (4.5 h post-induction vs induction); higher = less antimicrobial activity (less host growth inhibition)
Details: time post-induction: 4.5 h; library: site-saturation at positions 5, 18, 19, 20
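Further: peptides expressed intracellularly from a pBAD plasmid library in pooled LB shake-flask culture, induced with 0.3% L-arabinose, DNA abundance read by NGS, three biological replicates, DESeq2 with apeglm shrinkage.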

Sequence	shrunken log2 fold change
RRIRTRPPRLPRPRPRPMCHPRP	-0.228
RRIRTRPPRLPRPRPRPMCQPRP	-0.0075
RRIRTRPPRLPRPRPRPMCSPRP	-0.0861
RRIRTRPPRLPRPRPRPMDLPRP	-0.0399
RRIRTRPPRLPRPRPRPMFSPRP	-0.263
RRIRTRPPRLPRPRPRPMFYPRP	-0.359
RRIRTRPPRLPRPRPRPMGEPRP	-0.0305
RRIRTRPPRLPRPRPRPMGPPRP	-0.114
RRIRTRPPRLPRPRPRPMIHPRP	-0.609
RRIRTRPPRLPRPRPRPMIYPRP	-0.465
RRIRTRPPRLPRPRPRPMKNPRP	-0.146
RRIRTRPPRLPRPRPRPMLIPRP	0.0601
RRIRTRPPRLPRPRPRPMLWPRP	0.143
RRIRTRPPRLPRPRPRPMNFPRP	-0.638
RRIRTRPPRLPRPRPRPMPNPRP	-0.17
RRIRTRPPRLPRPRPRPMQHPRP	-0.112
RRIRTRPPRLPRPRPRPMRPPRP	0.93
RRIRTRPPRLPRPRPRPMRVPRP	-0.036
RRIRTRPPRLPRPRPRPMSIPRP	-0.143
RRIRTRPPRLPRPRPRPMSYPRP	0.0494
RRIRTRPPRLPRPRPRPMTCPRP	-0.0817
RRIRTRPPRLPRPRPRPMTVPRP	-0.294
RRIRTRPPRLPRPRPRPMWCPRP	-0.172
RRIRTRPPRLPRPRPRPMWIPRP	-0.222
RRIRTRPPRLPRPRPRPMWSPRP	-0.0629

Sequence	shrunken log2 fold change
RRIRTRPPRLPRPRPRPMWTPRP	-0.00193
RRIRTRPPRLPRPRPRPNACPRP	-0.0597
RRIRTRPPRLPRPRPRPNCIPRP	-0.288
RRIRTRPPRLPRPRPRPNCTPRP	-0.485
RRIRTRPPRLPRPRPRPNDEPRP	-0.0966
RRIRTRPPRLPRPRPRPNDKPRP	-0.605
RRIRTRPPRLPRPRPRPNEDPRP	-0.0528
RRIRTRPPRLPRPRPRPNHSPRP	-0.925
RRIRTRPPRLPRPRPRPNMAPRP	-0.155
RRIRTRPPRLPRPRPRPNMFPRP	-0.315
RRIRTRPPRLPRPRPRPNMIPRP	-0.277
RRIRTRPPRLPRPRPRPNNIPRP	-0.695
RRIRTRPPRLPRPRPRPNPVPRP	-0.0168
RRIRTRPPRLPRPRPRPNQLPRP	-0.101
RRIRTRPPRLPRPRPRPNRAPRP	-0.244
RRIRTRPPRLPRPRPRPNSDPRP	-0.0311
RRIRTRPPRLPRPRPRPNTHPRP	-0.451
RRIRTRPPRLPRPRPRPNTPPRP	-0.17
RRIRTRPPRLPRPRPRPNWCPRP	-0.0796
RRIRTRPPRLPRPRPRPNWDPRP	0.00303
RRIRTRPPRLPRPRPRPNWFPRP	-0.157
RRIRTRPPRLPRPRPRPNWMPRP	0.286
RRIRTRPPRLPRPRPRPNWNPRP	-0.335
RRIRTRPPRLPRPRPRPNYYPRP	-0.66
RRIRTRPPRLPRPRPRPPACPRP	0.313

Sequence	shrunken log2 fold change
RRIRTRPPRLPRPRPRPPCAPRP	0.308
RRIRTRPPRLPRPRPRPPCQPRP	-0.215
RRIRTRPPRLPRPRPRPPCTPRP	-0.0757
RRIRTRPPRLPRPRPRPPDHPRP	0.112
RRIRTRPPRLPRPRPRPPEAPRP	0.205
RRIRTRPPRLPRPRPRPPEYPRP	0.0238
RRIRTRPPRLPRPRPRPPFGPRP	0.0407
RRIRTRPPRLPRPRPRPPFMPRP	-0.194
RRIRTRPPRLPRPRPRPPFNPRP	0.0539
RRIRTRPPRLPRPRPRPPILPRP	0.112
RRIRTRPPRLPRPRPRPPMYPRP	-0.406
RRIRTRPPRLPRPRPRPPPKPRP	0.82
RRIRTRPPRLPRPRPRPPPRPRP	1.36
RRIRTRPPRLPRPRPRPPQQPRP	0.211
RRIRTRPPRLPRPRPRPPRAPRP	0.786
RRIRTRPPRLPRPRPRPPTFPRP	-0.203
RRIRTRPPRLPRPRPRPPTKPRP	0.674
RRIRTRPPRLPRPRPRPPTLPRP	0.0694
RRIRTRPPRLPRPRPRPPTSPRP	0.345
RRIRTRPPRLPRPRPRPPTTPRP	0.302
RRIRTRPPRLPRPRPRPPVLPRP	0.0185
RRIRTRPPRLPRPRPRPPWTPRP	0.167
RRIRTRPPRLPRPRPRPPYAPRP	-0.17
RRIRTRPPRLPRPRPRPPYTPRP	-0.397
RRIRTRPPRLPRPRPRPQAEPRP	-0.00758

Sequence	shrunken log2 fold change
RRIRTRPPRLPRPRPRPQANPRP	-0.156
RRIRTRPPRLPRPRPRPQAQPRP	0.017
RRIRTRPPRLPRPRPRPQCLPRP	0.0552
RRIRTRPPRLPRPRPRPQCPPRP	-0.125
RRIRTRPPRLPRPRPRPQDYPRP	0.0537
RRIRTRPPRLPRPRPRPQEPPRP	-0.0583
RRIRTRPPRLPRPRPRPQERPRP	0.00298
RRIRTRPPRLPRPRPRPQFFPRP	-0.11
RRIRTRPPRLPRPRPRPQGCPRP	0.0515
RRIRTRPPRLPRPRPRPQHHPRP	-0.453
RRIRTRPPRLPRPRPRPQLFPRP	-0.112
RRIRTRPPRLPRPRPRPQLMPRP	-0.137
RRIRTRPPRLPRPRPRPQLTPRP	-0.0274
RRIRTRPPRLPRPRPRPQNDPRP	-0.749
RRIRTRPPRLPRPRPRPQNGPRP	-0.456
RRIRTRPPRLPRPRPRPQNMPRP	-0.654
RRIRTRPPRLPRPRPRPQNTPRP	-0.622
RRIRTRPPRLPRPRPRPQPAPRP	0.0787
RRIRTRPPRLPRPRPRPQPHPRP	-0.0402
RRIRTRPPRLPRPRPRPQQNPRP	-0.0459
RRIRTRPPRLPRPRPRPQRAPRP	0.265
RRIRTRPPRLPRPRPRPQRRPRP	-0.0307
RRIRTRPPRLPRPRPRPQSEPRP	-0.141
RRIRTRPPRLPRPRPRPQTYPRP	-0.0726
RRIRTRPPRLPRPRPRPQVIPRP	-0.232

Sequence	shrunken log2 fold change
RRIRTRPPRLPRPRPRPQYSPRP	-0.056
RRIRTRPPRLPRPRPRPRCGPRP	0.172
RRIRTRPPRLPRPRPRPRERPRP	0.112
RRIRTRPPRLPRPRPRPRFSPRP	-0.14
RRIRTRPPRLPRPRPRPRGFPRP	0.732
RRIRTRPPRLPRPRPRPRGNPRP	0.0399
RRIRTRPPRLPRPRPRPRGRPRP	0.593
RRIRTRPPRLPRPRPRPRGVPRP	0.196
RRIRTRPPRLPRPRPRPRIAPRP	0.102
RRIRTRPPRLPRPRPRPRIRPRP	0.0303
RRIRTRPPRLPRPRPRPRKHPRP	-0.166
RRIRTRPPRLPRPRPRPRMCPRP	0.00183
RRIRTRPPRLPRPRPRPRNSPRP	-0.193
RRIRTRPPRLPRPRPRPRNTPRP	-0.209
RRIRTRPPRLPRPRPRPRPFPRP	0.114
RRIRTRPPRLPRPRPRPRPTPRP	0.626
RRIRTRPPRLPRPRPRPRTPPRP	0.138
RRIRTRPPRLPRPRPRPRYAPRP	0.108
RRIRTRPPRLPRPRPRPRYHPRP	-0.573
RRIRTRPPRLPRPRPRPSACPRP	-0.277
RRIRTRPPRLPRPRPRPSCNPRP	-0.768
RRIRTRPPRLPRPRPRPSENPRP	-0.0993
RRIRTRPPRLPRPRPRPSETPRP	0.11
RRIRTRPPRLPRPRPRPSFDPRP	-0.365
RRIRTRPPRLPRPRPRPSFFPRP	-0.256

Sequence	shrunken log2 fold change
RRIRTRPPRLPRPRPRPSGVPRP	0.00112
RRIRTRPPRLPRPRPRPSIAPRP	-0.281
RRIRTRPPRLPRPRPRPSKTPRP	0.0543
RRIRTRPPRLPRPRPRPSKYPRP	0.557
RRIRTRPPRLPRPRPRPSPRPRP	0.396
RRIRTRPPRLPRPRPRPSQCPRP	-0.239
RRIRTRPPRLPRPRPRPSTEPRP	-0.456
RRIRTRPPRLPRPRPRPSWRPRP	0.153
RRIRTRPPRLPRPRPRPSWWPRP	0.125
RRIRTRPPRLPRPRPRPSYCPRP	0.0739
RRIRTRPPRLPRPRPRPSYWPRP	-0.153
RRIRTRPPRLPRPRPRPTAAPRP	0.211
RRIRTRPPRLPRPRPRPTAHPRP	0.0803
RRIRTRPPRLPRPRPRPTAQPRP	0.247
RRIRTRPPRLPRPRPRPTEWPRP	0.0143
RRIRTRPPRLPRPRPRPTGTPRP	-0.0721
RRIRTRPPRLPRPRPRPTITPRP	0.184
RRIRTRPPRLPRPRPRPTKVPRP	-0.134
RRIRTRPPRLPRPRPRPTKWPRP	-0.0752
RRIRTRPPRLPRPRPRPTLEPRP	0.0319
RRIRTRPPRLPRPRPRPTLSPRP	0.106
RRIRTRPPRLPRPRPRPTMAPRP	0.201
RRIRTRPPRLPRPRPRPTMNPRP	-0.371
RRIRTRPPRLPRPRPRPTNAPRP	0.209
RRIRTRPPRLPRPRPRPTNCPRP	0.216
